Molecular target: HLA-A*02 (Homo sapiens, UniProt P04439, D140Y/D185E/D98H/E176V/E277Q/G131W/G231S/I119V/I121R/I166T/I218V/N151K/N90K/P208A/P217A/Q86G/Q94H/R138H/R169H)
Test: UV-ligand exchange / peptide binding to MHC class I (beta2m ELISA)
Details: peptide exchange yield
Procedure, shortened: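 Peptide-MHC complexes generated by UV-mediated exchange of a photocleavable ligand for the test peptide. Exchange yield measured by streptavidin-capture ELISA detecting β2m of stabilized complexes (HRP anti-β2m, TMB, 450 nm). Samples diluted 100-fold, quantified against refolded HLA-A*0201 monomer standards (15-500 ng/ml).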

Row | Peptide exchange (MHC class I binding score) (Table 10B, HLA-A*02 peptides) | Peptide exchange (MHC class I binding score) (Table 10A, UV-ligand exchange, β2m ELISA) | Substance
1 | “++++” (≥75% = ++++) | – | 138 (ALSQVTLLL; listed as Homo sapiens) [compound 138]
2 | “+++” (≥50 = +++) | – | 48 (FLLEQPEIQV; listed as Homo sapiens) [compound 48]
3 | “++++” (≥75% = ++++) | – | 96 (SLLEEPNVIRV; listed as Homo sapiens) [compound 96]
4 | “++” (≥20% = ++) | – | 100 (SLVGDIGNVNM; listed as Homo sapiens) [compound 100]
5 | “++++” (≥75% = ++++) | – | 264 (VMQDPEFLQSV; listed as Homo sapiens) [compound 264]
6 | “++++” (≥75% = ++++) | – | 105 (SVYDGKLLI; listed as Homo sapiens) [compound 105]
7 | “+++” (≥50 = +++) | – | 53 (GLIHLEGDTV; listed as Homo sapiens) [compound 53]
8 | “+++” (≥50 = +++) | – | 77 (LLHEENFSV; listed as Homo sapiens) [compound 77]
9 | “+++” (≥50 = +++) | – | 85 (RILPKVLEV; listed as Homo sapiens) [compound 85]
10 | “+++” (≥50 = +++) | – | 282 (GQFPSYLETV; listed as Homo sapiens) [compound 282]
11 | “++++” (≥75% = ++++) | – | 140 (ALTSISAGV; listed as Homo sapiens) [compound 140]
12 | “++++” (≥75% = ++++) | – | 97 (SLLPQLIEV; listed as Homo sapiens) [compound 97]
13 | “+++” (≥50 = +++) | +++ (50%-75% = +++) | 220 (SLLEKELESV; listed as Homo sapiens) [compound 220]
14 | “+++” (≥50 = +++) | – | 159 (RLFPDGIVTV; listed as Homo sapiens) [compound 159]
15 | “+++” (≥50 = +++) | – | 86 (RLAAFYSQV; listed as Homo sapiens) [compound 86]
16 | “+++” (≥50 = +++) | – | 173 (SLTSEIHFL; listed as Homo sapiens) [compound 173]
17 | “+++” (≥50 = +++) | – | 261 (VLFQEALWHV; listed as Homo sapiens) [compound 261]
18 | “+++” (≥50 = +++) | – | 255 (SLFGQDVKAV; listed as Homo sapiens) [compound 255]
19 | “+++” (≥50 = +++) | – | 31 (YQMDIQQEL; listed as Homo sapiens) [compound 31]
20 | “+++” (≥50 = +++) | – | 92 (RLPPDTLLQQV; listed as Homo sapiens) [compound 92]

Row | Peptide exchange (MHC class I binding score) (Table 10B, HLA-A*02 peptides) | Peptide exchange (MHC class I binding score) (Table 10A, UV-ligand exchange, β2m ELISA) | Substance
21 | “++” (≥20% = ++) | – | 238 (AMPPPPPQGV; listed as Homo sapiens) [compound 238]
22 | “+++” (≥50 = +++) | – | 182 (YLLHFPMAL; listed as Homo sapiens) [compound 182]
23 | “+++” (≥50 = +++) | – | 186 (VLLAQIIQV; listed as Homo sapiens) [compound 186]
24 | “++” (≥20% = ++) | – | 120 (YLGEEYVKA; listed as Homo sapiens) [compound 120]
25 | “++++” (≥75% = ++++) | – | 142 (AVIGGLIYV; listed as Homo sapiens) [compound 142]
26 | “++” (≥20% = ++) | – | 145 (FLIAEYFEHV; listed as Homo sapiens) [compound 145]
27 | “+++” (≥50 = +++) | – | 52 (GLFNAELLEA; listed as Homo sapiens) [compound 52]
28 | “+++” (≥50 = +++) | – | 33 (LLHGHIVEL; listed as Homo sapiens) [compound 33]
29 | “+++” (≥50 = +++) | – | 285 (KLLDLSDSTSV; listed as Homo sapiens) [compound 285]
30 | “++++” (≥75% = ++++) | – | 176 (TLGQIWDV; listed as Homo sapiens) [compound 176]
31 | “+++” (≥50 = +++) | – | 269 (YLMEGSYNKV; listed as Homo sapiens) [compound 269]
32 | “++++” (≥75% = ++++) | – | 265 (WLIEDGKVVTV; listed as Homo sapiens) [compound 265]
33 | “++++” (≥75% = ++++) | – | 271 (LLLDKLILL; listed as Homo sapiens) [compound 271]
34 | “+++” (≥50 = +++) | – | 180 (YLGPHIASVTL; listed as Homo sapiens) [compound 180]
35 | “+++” (≥50 = +++) | – | 118 (YLDDEKNWGL; listed as Homo sapiens) [compound 118]
36 | “+++” (≥50 = +++) | – | 185 (ALFPALRPGGFQA; listed as Homo sapiens) [compound 185]
37 | “+++” (≥50 = +++) | – | 270 (SVLDQKILL; listed as Homo sapiens) [compound 270]
38 | “+++” (≥50 = +++) | – | 181 (YLLEKFVAV; listed as Homo sapiens) [compound 181]
39 | “+++” (≥50 = +++) | – | 18 (ALYGKTEVV; listed as Homo sapiens) [compound 18]
40 | “++++” (≥75% = ++++) | – | 165 (RVIEHVEQV; listed as Homo sapiens) [compound 165]

Row | Peptide exchange (MHC class I binding score) (Table 10B, HLA-A*02 peptides) | Peptide exchange (MHC class I binding score) (Table 10A, UV-ligand exchange, β2m ELISA) | Substance
41 | “++++” (≥75% = ++++) | – | 41 (ALLELDEPLVL; listed as Homo sapiens) [compound 41]
42 | “++++” (≥75% = ++++) | – | 44 (ALQDAIRQL; listed as Homo sapiens) [compound 44]
43 | “+++” (≥50 = +++) | – | 273 (AILETAPKEV; listed as Homo sapiens) [compound 273]
44 | “+++” (≥50 = +++) | – | 76 (LLADIGGDPFAA; listed as Homo sapiens) [compound 76]
45 | “+++” (≥50 = +++) | – | 154 (KLTDHLKYV; listed as Homo sapiens) [compound 154]
46 | “++++” (≥75% = ++++) | – | 247 (KLLDTMVDTFL; listed as Homo sapiens) [compound 247]
47 | “+++” (≥50 = +++) | – | 237 (ALRGEIETV; listed as Homo sapiens) [compound 237]
48 | “+++” (≥50 = +++) | – | 236 (ALADKELLPSV; listed as Homo sapiens) [compound 236]
49 | “+++” (≥50 = +++) | – | 3 (ILDDNMQKL; listed as Homo sapiens) [compound 3]
50 | “+++” (≥50 = +++) | – | 175 (TLFEHLPHI; listed as Homo sapiens) [compound 175]
51 | “+++” (≥50 = +++) | – | 84 (QLTPVLVSV; listed as Homo sapiens) [compound 84]
52 | “+++” (≥50 = +++) | – | 38 (ALADVVHEA; listed as Homo sapiens) [compound 38]
53 | “+++” (≥50 = +++) | – | 135 (ALLGKIEKV; listed as Homo sapiens) [compound 135]
54 | “++” (≥20% = ++) | – | 222 (LTDITKGV; listed as Homo sapiens) [compound 222]
55 | “+++” (≥50 = +++) | – | 90 (RLLDVLAPLV; listed as Homo sapiens) [compound 90]
56 | “++” (≥20% = ++) | – | 47 (FLDTPIAKV; listed as Homo sapiens) [compound 47]
57 | “+++” (≥50 = +++) | – | 262 (VLPNFLPYNV; listed as Homo sapiens) [compound 262]
58 | “+++” (≥50 = +++) | – | 260 (TLMDMRLSQV; listed as Homo sapiens) [compound 260]
59 | “+++” (≥50 = +++) | – | 297 (TLFYSLREV; listed as Homo sapiens) [compound 297]
